By Kd is commonly meant a measure of binding affinity in units of concentration. Read a high Kd as lower affinity.

Holding throughout (assay): Kd (EC50 corrected by depletion factor)
For one series, the target named is T1, NONO (UniProt Q15233).
T1 sequence: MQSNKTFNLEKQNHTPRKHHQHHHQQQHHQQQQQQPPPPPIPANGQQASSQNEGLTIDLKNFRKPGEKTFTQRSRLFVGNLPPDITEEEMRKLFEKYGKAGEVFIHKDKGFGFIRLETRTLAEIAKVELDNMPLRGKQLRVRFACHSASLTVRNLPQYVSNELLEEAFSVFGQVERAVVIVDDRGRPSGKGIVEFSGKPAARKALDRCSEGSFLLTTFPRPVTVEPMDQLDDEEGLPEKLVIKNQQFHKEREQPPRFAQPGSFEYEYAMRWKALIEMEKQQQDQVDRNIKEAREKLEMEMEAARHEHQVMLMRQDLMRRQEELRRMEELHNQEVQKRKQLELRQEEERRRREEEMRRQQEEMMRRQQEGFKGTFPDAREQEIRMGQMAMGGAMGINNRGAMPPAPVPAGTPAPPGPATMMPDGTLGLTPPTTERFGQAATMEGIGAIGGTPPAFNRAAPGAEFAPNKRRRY
In a few lines: (§1)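 Free RNA oligos (0 nM to 30 μM) competed for 1 h at 4°C in HEK293-FT lysate (2.5 mg protein/well) before a 30 min, 4°C pulldown with the same oligos on NHS-Sepharose beads. Bound proteins were quantified by label-free LC-MS/MS and normalised to the control. Kd was found by multiplying EC50, from a four-parameter log-logistic fit, by a protein-dependent depletion factor.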

The target of another series is CPSF4 (UniProt O95639). In short, it runs like this: as §1
Sequence of CPSF4 (O95639 whole entry): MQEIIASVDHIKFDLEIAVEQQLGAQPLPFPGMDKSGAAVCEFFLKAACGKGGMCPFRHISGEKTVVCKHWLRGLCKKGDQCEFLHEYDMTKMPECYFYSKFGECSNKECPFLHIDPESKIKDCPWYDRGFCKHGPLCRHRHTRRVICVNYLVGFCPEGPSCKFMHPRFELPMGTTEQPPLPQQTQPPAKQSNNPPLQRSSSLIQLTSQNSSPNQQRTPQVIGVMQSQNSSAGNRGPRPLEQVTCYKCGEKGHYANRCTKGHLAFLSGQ
Another series deals with T2, HNRNPR (UniProt O43390).
T2 sequence: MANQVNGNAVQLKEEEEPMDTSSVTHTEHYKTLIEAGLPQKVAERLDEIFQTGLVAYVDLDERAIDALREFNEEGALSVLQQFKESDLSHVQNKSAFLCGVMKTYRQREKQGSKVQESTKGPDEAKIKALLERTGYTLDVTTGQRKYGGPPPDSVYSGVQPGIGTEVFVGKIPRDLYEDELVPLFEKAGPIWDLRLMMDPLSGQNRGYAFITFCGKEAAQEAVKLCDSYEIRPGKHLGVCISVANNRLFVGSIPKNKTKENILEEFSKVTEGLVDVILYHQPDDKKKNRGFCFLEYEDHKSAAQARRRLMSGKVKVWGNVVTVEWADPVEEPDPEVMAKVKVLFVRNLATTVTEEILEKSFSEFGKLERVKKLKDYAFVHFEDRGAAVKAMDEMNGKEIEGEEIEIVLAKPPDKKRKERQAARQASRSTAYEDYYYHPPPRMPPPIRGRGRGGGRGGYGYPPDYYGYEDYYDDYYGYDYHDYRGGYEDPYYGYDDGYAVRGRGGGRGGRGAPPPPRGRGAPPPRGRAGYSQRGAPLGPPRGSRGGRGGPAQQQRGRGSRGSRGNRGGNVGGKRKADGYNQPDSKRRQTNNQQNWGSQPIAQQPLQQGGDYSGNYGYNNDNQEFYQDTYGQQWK
In short, it runs like this: as §1

The next series has as its target HSP90AB2P (UniProt Q58FF8). In short, it runs like this:
as §1

The next series has as its target RPS3A (UniProt P61247). In short, it runs like this: as §1
A further series concerns the target T3, SRSF7 (UniProt Q16629).
T3 sequence: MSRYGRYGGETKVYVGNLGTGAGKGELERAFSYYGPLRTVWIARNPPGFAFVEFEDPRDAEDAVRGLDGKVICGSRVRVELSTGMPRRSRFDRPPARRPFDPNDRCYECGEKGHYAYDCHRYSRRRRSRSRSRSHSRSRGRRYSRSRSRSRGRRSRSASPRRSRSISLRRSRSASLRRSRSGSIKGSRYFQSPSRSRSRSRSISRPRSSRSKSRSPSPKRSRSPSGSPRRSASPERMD
In short, it runs like this:
as §1

In another series the target is T4, CSTF3 (UniProt Q12996).
T4 sequence: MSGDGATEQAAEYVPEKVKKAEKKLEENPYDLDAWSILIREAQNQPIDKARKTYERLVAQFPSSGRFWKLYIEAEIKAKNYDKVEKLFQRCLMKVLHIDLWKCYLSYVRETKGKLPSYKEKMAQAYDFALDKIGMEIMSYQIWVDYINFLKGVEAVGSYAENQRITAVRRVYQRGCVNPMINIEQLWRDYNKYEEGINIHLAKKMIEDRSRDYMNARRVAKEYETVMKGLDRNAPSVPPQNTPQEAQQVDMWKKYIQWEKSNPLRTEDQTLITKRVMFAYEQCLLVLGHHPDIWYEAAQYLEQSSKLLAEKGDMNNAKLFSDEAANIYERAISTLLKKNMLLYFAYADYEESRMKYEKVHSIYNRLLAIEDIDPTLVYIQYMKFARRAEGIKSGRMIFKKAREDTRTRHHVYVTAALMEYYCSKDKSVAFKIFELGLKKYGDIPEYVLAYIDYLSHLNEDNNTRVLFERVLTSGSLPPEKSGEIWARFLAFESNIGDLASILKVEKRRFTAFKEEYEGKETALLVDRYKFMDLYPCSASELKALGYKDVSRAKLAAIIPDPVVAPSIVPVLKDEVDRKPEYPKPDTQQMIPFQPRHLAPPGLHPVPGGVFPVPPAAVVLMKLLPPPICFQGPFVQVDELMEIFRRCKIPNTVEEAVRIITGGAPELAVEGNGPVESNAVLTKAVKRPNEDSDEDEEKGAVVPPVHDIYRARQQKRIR
In short, it runs like this:
as §1

Sequence of HSP90AB2P (Q58FF8 whole entry): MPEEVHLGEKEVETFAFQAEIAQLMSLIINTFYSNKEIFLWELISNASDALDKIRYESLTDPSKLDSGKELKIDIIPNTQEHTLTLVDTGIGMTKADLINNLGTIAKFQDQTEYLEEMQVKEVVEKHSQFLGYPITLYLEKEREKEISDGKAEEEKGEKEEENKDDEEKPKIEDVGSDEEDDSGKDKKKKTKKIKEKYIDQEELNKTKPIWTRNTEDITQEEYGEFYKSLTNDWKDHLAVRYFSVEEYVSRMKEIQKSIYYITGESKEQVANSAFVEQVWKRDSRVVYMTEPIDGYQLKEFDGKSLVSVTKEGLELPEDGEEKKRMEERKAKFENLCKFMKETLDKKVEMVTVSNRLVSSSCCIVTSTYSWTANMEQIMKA

For the sequence AAUAAA, the Kd was 0.000305 µM with NONO, 0.00595 µM with CPSF4, 0.677 µM with HNRNPR and 0.108 µM in the series with HSP90AB2P.

Regarding CUGUCCU, the Kd in the series with RPS3A turned out to be 0.0642 µM; in the series with SRSF7 it was 1 µM.

In turn, UAUUUAU gave a Kd with CSTF3 of 0.352 µM.

Source of the values: the supplement of paper PMC6379048.
